41 sequences from the nanobody polyreactivity screen of Harvey et al. (2022) can be followed below.

The nature of the data set: yeast display, Sf9 membrane polyspecificity reagent, FACS + sequencing; frameworks hold sequencing errors. An outline of the steps:
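Using colony PCR, genes from sorted yeast display clones were amplified, then sequenced on MiSeq at 2 × 250 and filtered by CDR length. The clones had been stained with 10% biotinylated, detergent-solubilized Sf9 membrane reagent for 1 hour at 4 °C and sorted by FACS into low and high (top ~1%) gates on anti-HA and streptavidin fluorescence. Polyreactivity labels come from the gate of origin.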
For “QVQLVESGGGLVQAGGSLRLSCAASGLIFYYYVKGWYRQAPGKERELVAAISVIGDSTYYADSVKGRFTISRDNAKNTVYLQMNSLKPEDTAVYYCNADPWRWDRESRYEYWGQGTQVSVSS”, the “polyreactivity (PSR sort gate)” value is recorded as “high polyreactivity”.
As for “QVQLVESGGGLVQAGGSLRLSCAASGLIIGVYAMGWYRQAPGKERELVAAITDGGSTYYADSVKGRFTISRDNAKNTVYLQMNSLKPEDTAVYYCNKLYTRVGFTFEYWGQGTQVTVSS”, the entry is “low polyreactivity”; as for “QVQLVESGGGLVQAGGSLRLSCAASGLIILPNAMGWYRQAPGKDRELVAAISSYDGSTYYADSVKGRFTISRDSAKNTVYLQMNSLKPEDTAVYYCAAGYYFQVEPDLVYIYSYEYWGQGTQVTVSS”, “low polyreactivity”; as for “QVQLVESGGGLVQAGGSLRLSCAASGLIIRNYAMGWYRPAPGKERELVAAISYNGGSTYYADSVKGRFTISRDNAKNTVYLQMNSLKPEDTAVYYCAAYYGVGYRRYYYWGQGTQVTVSS”, “high polyreactivity”.
Turning to “QVQLVESGGGLVQAGGSLRLSCAASGLIIRWNAMGWYRQAPAKERELVAAINRGGSTYYADSVKGRFTISRDNAKNTVYLQMTSLKPEDTAVYYCAVGYAHSSNRRYYYKKTHGYWGQGTQVTVSS”, the “polyreactivity (PSR sort gate)” value is “low polyreactivity”.
As for “QVQLVESGGGLVQAGGSLRLSCAASGLIIWLYTMGWYRQAPGKERELVAAIDWSGGSTYYADSVKGRFTISRDNAKNTDYLQMNSLKPEDTAVYYCAADPEPSYRFDYCGQGTQVTVSS”, the entry is “low polyreactivity”; as for “QVQLVESGGGLVQAGGSLRLSCAASGLILPDYAMGWYRQAPGKERELVAAISQRGGSTYYADSVKGRFTISRDNAKNSVYLQMYSLKPEDTAVYYCNALFRLRAYAEMDYWGQGTQVTVSS”, “high polyreactivity”; as for “QVQLVESGGGLVQAGGSLRLSCAASGLILRGYAMGWYRQAPGKERELVAAISGSGGRTYYADSVKGRFTISRDNAKNTVYLQMNSLKPEDTAVYYCNKGGIREYDYWGQGTQVTVSS”, “high polyreactivity”.
As for “QVQLVESGGGLVQAGGSLRLSCAASGLILSSNAMGWYRQAPGKERELVAAITWDGDRTYADSVKGRFTISRDNAKNTVYLQMNSLKPEDTAVYYCAAPSYVSYDSEFGYWGQGTQVTVSS”, the entry is “low polyreactivity”.
Then “QVQLVESGGGLVQAGGSLRLSCAASGLILSSNAMGWYRQAPGKERELVATISWSGDSTYYADSVKGRFTISRDNAKNTVYLQMNSLKPEDTAVYDCNADHFQWGAGYDYWGQGTQVTVSS”, with “low polyreactivity”; and “QVQLVESGGGLVQAGGSLRLSCAASGLILYHYAMGWYRQAPGKERELVAAISRSGGRTSYADSVKGRFTISRDNAKNTVYLQMNSLKPEDTAVFYCAAEKVGTRPSRDYDYWGQGTQVTVSS”, with “high polyreactivity”; and “QVQLVESGGGLVQAGGSLRLSCAASGLIRYTYAMGWYRQAPGKERELVAAINSGGRTYYADSVKGRFTISRDNAKNTVYLQMNSLKPEYTAVYSCAADYGSRVRGFNYWGQGTQVTVSS”, with “low polyreactivity”.
As to “QVQLVESGGGLVQAGGSLRLSCAASGLISESYAMGWYRQAPGKETELVAAISSGGSTYYADSVKGRFTISRDNAKNTVYLQMNSLNPEDTAVYFCNATGYKYNYGHAYYYAVDYWGQGTQVTVSS”, the “polyreactivity (PSR sort gate)” value is recorded as “low polyreactivity”.
As for “QVQLVESGGGLVQAGGSLRLSCAASGLISHNNAMGWYRQAPGKEREFVAAITTTGSSTYYADSVKGRFTISRDNEKNTVYLQMNSLKPEDTAVYYCAAESVPSRSEMDYWGQGTQVTVSS”, the entry is “low polyreactivity”.
Then “QVQLVESGGGLVQAGGSLRLSCAASGLISRRNAMGWYRQAPGKERELVAAISTGSSTNYADSVKGRFTISRDNAKNTVYLQMNSLKPEDTAVYYCAATQYWWSTLGIRDDYWGQGTQVTVSS”, with “low polyreactivity”.
“QVQLVESGGGLVQAGGSLRLSCAASGLIVQVYDMGWYRQAPGKEMELVAAISSGSNTNYADSVKGRFTISRDNAKNTVYLLMNSLKPEDTAVYYCAASWGYGALTPDMGYWGQGTQVTVSA”: the “polyreactivity (PSR sort gate)” value is “low polyreactivity”.
As for “QVQLVESGGGLVQAGGSLRLSCAASGLIYTPYAMGWYRQAPGKERELVAAINYGGSRTYYADSVKGRFTISRDNAKNTVYLQMNSLKQEDTAVYYCNKPGNYVWRRSWDFDYWGQGTQVTVSW”, the “polyreactivity (PSR sort gate)” value was “high polyreactivity”.
“QVQLVESGGGLVQAGGSLRLSCAASGLNFGRNAIGWYRQAPGKERELVAAISLSGGRTSYADSVKGRFTISRDNEQNTVYLQMNSVKPEDTAFYFCASRSDVYTHDYWGQGTQVTVSS”: the “polyreactivity (PSR sort gate)” value is “high polyreactivity”.
As for “QVQLVESGGGLVQAGGSLRLSCAASGLNFSYYVMGWYRQAPGKERELVATITYSGGSTYYADSVKGRFTISRDNAKNTVYLQMNSLKPEDTAVYYFNADTGYVYSEYEYWGQGTQVTVSS”, the entry is “high polyreactivity”; as for “QVQLVESGGGLVQAGGSLRLSCAASGLPFYQYAMGWYRQAPGKERELVAGISSGGSTKYADSVKGRFTISRDNAKNTVYFQMNSLKPEDTAVYYCAARFYAFRKGYYYWGQGTQVTVSS”, “high polyreactivity”.
Then “QVQLVESGGGLVQAGGSLRLSCAASGLSFLYAMGWYRHAPGKERELVAAISNGGSTYYADSVKGRFTISRDNAKNTDYLQMNSLKPEDTAVYYCAAAVTGSYASDYWGQGTQVTVSS”, with “high polyreactivity”; and “QVQLVESGGGLVQAGGSLRLSCAASGLSFSVYAMGWSRQAPGTERELVASIDLSGGNTYYADSVKGRFTISRDNAKNTVYLQMNSLKPEDTAVYYCAKYNPYYYSFSVWDGGDYWGQGTQVTVSS”, with “low polyreactivity”.
With “QVQLVESGGGLVQAGGSLRLSCAASGLSFSVYAMGWYRQAPGKERELVAAITRNGGSTYYADSVKGRFTISRDTAKNTVYLQMNSLKPEDSAVYYCAAVASSKLYDYWGQGTQVTVSS”, the “polyreactivity (PSR sort gate)” value is on record as “low polyreactivity”.
With “QVQLVESGGGLVQAGGSLRLSCAASGLSFTFGYAMGWYRQAPGKERELVASISSSGGNTYYADSVKGRFTISRDNAKNTVYLQMNSLKPEDTAVYYCAVYSHRRNMNYWGQGTQVTVSS”, the “polyreactivity (PSR sort gate)” value is on record as “high polyreactivity”.
Then “QVQLVESGGGLVQAGGSLRLSCAASGLTFAWNDMGWYRQAPGKERELVAAISIIGTTYYADSVKGRFTISRDNAKNTVYLQMNSLKREDTAVYYCAKTGFLGLRQYGYWGQGTQVTVSS”, with “high polyreactivity”.
As for “QVQLVESGGGLVQAGGSLRLSCAASGLTFAWYAMGWYRPAPGKERELVATITSGGSTNYADSVKGRFTISRDNAKNTVYLQMNSLKPEDTAVYYCNADYIYYGTTYEYWGQGTQVTVSS”, the entry is “low polyreactivity”.
As for “QVQLVESGGGLVQAGGSLRLSCAASGLTFAWYTMGWYRQAPGKERELVADIDQSGSTYYADSVKGRFTISRDNAKNTVYLQMNSLKPEDTAVYYCNAYWSNFLYPFDYWGQGTQVTVSS”, the entry is “high polyreactivity”; as for “QVQLVESGGGLVQAGGSLRLSCAASGLTFAYYGMGWYRQAPGKEMELVAAITSSGGSTYYADSVKGRFTISRDNAKNTVYLQMNSLKPEDTAVYYCAAFVRQYGFDYWGQGTQVTVSS”, “low polyreactivity”.
“QVQLVESGGGLVQAGGSLRLSCAASGLTFCPNAMGWYRQAPGKEREFVASISISGRTYYADSVKGRFTISRDNAKNTVYLLMNSLKPEDTAVYYCAARYVRSGLYRKYDYWGQGTQVTVSS”: the “polyreactivity (PSR sort gate)” value was “high polyreactivity”.
Then “QVQLVESGGGLVQAGGSLRLSCAASGLTFDANAMGWYIQAPGKEREFVAVISWSDGGTYYADSVKGRFTISRDNAKNTVYLQLNSLKPEDTAVYYCNADFYYVYGNTRRYRYFEMEYWGQGTQVTVSS”, with “low polyreactivity”; and “QVQLVESGGGLVQAGGSLRLSCAASGLTFDAYAMGWYRQAPGKERELVAAISSGGNSYYADSVKGRFTISRDNAKNTVYLQMNSLKPEDTAVYYCNAVGYYKYFFLAYEYDYWGQGTQVTVSS”, with “low polyreactivity”; and “QVQLVESGGGLVQAGGSLRLSCAASGLTFDAYAMGWYRQAPGKERELVAAISSGGNTYYADSVKGRFTISRDNAKNTVYLQMNSLKPEDTAVYYCNAVGYYKYFVLAYEYDYWGQGTQVTVSS”, with “low polyreactivity”.
As for “QVQLVESGGGLVQAGGSLRLSCAASGLTFDGNTMGWYRQAPGKERELVAAISFDGGNTYADSVKGRFRISRDNAKNTVYLQMNSLKPEDTAVYYCNASYEYNAGRVETEYDYWGQGTQVTVSS”, the entry is “low polyreactivity”.
As for “QVQLVESGGGLVQAGGSLRLSCAASGLTFDRYVMGWYRQAPGKERELVAGISTGGSSTYYADSVKGRFTISRDNAKNTVYLQMNSLKPEDTAVYYCAAKLSYWSRHNYWGQGTQVTVSS”, the entry is “high polyreactivity”.
“QVQLVESGGGLVQAGGSLRLSCAASGLTFDSSAMGWYRQAPGTERELVAAISFSGGRTYYADSVKGRFTISRDTAKNTVYLQMNSLKPDDTAVYYCAAQLRYKYDYWGHGTQVTVSS”: the “polyreactivity (PSR sort gate)” value is listed as “high polyreactivity”.
As for “QVQLVESGGGLVQAGGSLRLSCAASGLTFDYYAMGWYRQAPGKERELVAAIDWSGGSTYYADSVKGRFTISRDNAKNTVYLQMNSLKPEDSAVYYCATESDDSGMDYWGQGTQVTVSS”, the entry is “low polyreactivity”.
Consider “QVQLVESGGGLVQAGGSLRLSCAASGLTFEDNDMGWYRQAPGKERELVAAISSAGSTSYADSVKGRFTISRDNAKNTVYLQMNSLKPEDTAVYYCAKRYYLYHYDSWGQGTQVTVSS”, for which the “polyreactivity (PSR sort gate)” value was “low polyreactivity”.
Then “QVQLVESGGGLVQAGGSLRLSCAASGLTFFRYARGWYRQAPGKERELVATITGRGGSTYYADSVKGRFTISRDNAKNTVYLQMNSLKPEDTAVYYCAAYYSRFRYLHRDYWGQGTQVTVSS”, with “high polyreactivity”; and “QVQLVESGGGLVQAGGSLRLSCAASGLTFFTYVMGWYRQAPGKERELVASISERGGSTFYADSVKGRFTISRDNAKNTVYLQMNSLKPEDTAVYYCATVSQSFKYRYRWRAAASDYWGQGTQVTVSS”, with “high polyreactivity”.
Then “QVQLVESGGGLVQAGGSLRLSCAASGLTFGAYAMGWYRQAPGKEREFVAAITYSGGSTNYADSVKGRFTISRDNAKNTVYLQMNSLKPEDTAVYYCNAGYYSPWAFYPYDYWGQGTQVTVSS”, with “high polyreactivity”; and “QVQLVESGGGLVQAGGSLRLSCAASGLTFGFNAMGWYRQAPGKERELVAVIDSGGSTNYADSVKGRFTISRDNAKNTVYLQMNSLKPEDTAVYYCAADYTGFYPDGSDVDYDYWGQGTQVTVSS”, with “low polyreactivity”.
